The results in this text go back to US20220403009A1 (IGM BIOSCIENCES, published 2022).

One may read the Kd as the concentration at which binding is half-saturated. A high value points to a looser complex. Broadly, the IC50 is the midpoint of a concentration-inhibition curve. High values mean weaker potency, low ones greater potency.

Several values for one entry are separate records, joined by “and”; a condition that tells them apart may be missing. Equal values may be shown once. Read-outs that look alike come from different tables or passages of the source.

The target in assay [1] is T1, SARS-CoV-2 RBD K417E (SARS-CoV-2, UniProt P0DTC2 319-541). Briefly: BLI, RBD on anti-Penta-His sensor. Background: Biolayer interferometry detects binding as a change in optical thickness at a sensor tip.
The target of assay [2] is T2, SARS-CoV-2 RBD G446V (SARS-CoV-2, UniProt P0DTC2 319-541). In words: BLI, RBD on anti-Penta-His sensor.
The target of assay [3] is T3, SARS-CoV-2 RBD Y453F (SARS-CoV-2, UniProt P0DTC2 319-541). Briefly: BLI, RBD on anti-Penta-His sensor.
Assay [4] has as its target T4, SARS-CoV-2 RBD E484K (SARS-CoV-2, UniProt P0DTC2 319-541). Briefly: BLI, RBD on anti-Penta-His sensor.
The target in assay [5] is T1, SARS-CoV-2 RBD K417E. Briefly: BLI, blocking of ACE2-Fc binding to RBD.
The target of assay [6] is T2, SARS-CoV-2 RBD G446V. Briefly: BLI, blocking of ACE2-Fc binding to RBD.
Assay [7] has as its target T3, SARS-CoV-2 RBD Y453F. Briefly: BLI, blocking of ACE2-Fc binding to RBD.
The target of assay [8] is T4, SARS-CoV-2 RBD E484K. Briefly: BLI, blocking of ACE2-Fc binding to RBD.
The target of assay [9] is T1, SARS-CoV-2 RBD K417E. Briefly: BLI, RBD on anti-Penta-His sensor. This is another data set of the same source.
In assay [10] the target is T2, SARS-CoV-2 RBD G446V. Briefly: BLI, RBD on anti-Penta-His sensor. The source holds these as a separate data set.
The target in assay [11] is T3, SARS-CoV-2 RBD Y453F. Briefly: BLI, RBD on anti-Penta-His sensor. The source holds these as a separate data set.
For assay [12], the target named is T4, SARS-CoV-2 RBD E484K. In words: BLI, RBD on anti-Penta-His sensor. The source holds these as a separate data set.
For assay [13], the target named is T1, SARS-CoV-2 RBD K417E. In words: BLI, blocking of ACE2-Fc binding to RBD. The source holds these as a separate data set.
Assay [14] concerns the target T2, SARS-CoV-2 RBD G446V. Briefly: BLI, blocking of ACE2-Fc binding to RBD. The source holds these as a separate data set.
The target in assay [15] is T3, SARS-CoV-2 RBD Y453F. Briefly: BLI, blocking of ACE2-Fc binding to RBD. This is another data set of the same source.
Assay [16] deals with T4, SARS-CoV-2 RBD E484K. Briefly: BLI, blocking of ACE2-Fc binding to RBD. The source holds these as a separate data set.
In assay [17] the target is T1, SARS-CoV-2 RBD K417E. Briefly: BLI, RBD on anti-Penta-His sensor. The source holds these as a separate data set.
Assay [18] deals with T2, SARS-CoV-2 RBD G446V. Briefly: BLI, RBD on anti-Penta-His sensor. The source holds these as a separate data set.
Assay [19] concerns the target T3, SARS-CoV-2 RBD Y453F. In words: BLI, RBD on anti-Penta-His sensor. The source holds these as a separate data set.
Assay [20] deals with T4, SARS-CoV-2 RBD E484K. In words: BLI, RBD on anti-Penta-His sensor. This is another data set of the same source.
Assay [21] addresses T1, SARS-CoV-2 RBD K417E. In words: BLI, blocking of ACE2-Fc binding to RBD. The source holds these as a separate data set.
Assay [22] has as its target T2, SARS-CoV-2 RBD G446V. Briefly: BLI, blocking of ACE2-Fc binding to RBD. The source holds these as a separate data set.
Assay [23] addresses T3, SARS-CoV-2 RBD Y453F. Briefly: BLI, blocking of ACE2-Fc binding to RBD. The source holds these as a separate data set.
In assay [24] the target is T4, SARS-CoV-2 RBD E484K. In words: BLI, blocking of ACE2-Fc binding to RBD. This is another data set of the same source.

B1: Ab8 IgM (antibody)
VH: EVQLVESGGGLIQPGGSLRLSCAASGFTVSRNYMNWVRQAPGKGLEWVSVIYSGGSTFYADSVKGRFTISRDNSKNTLYLQMNSLRAEDTAVYYCARDASSYGIDWGQGTLVTVSS
VL: not shown
chain: not shown
With B1, the Kd in the assay with SARS-CoV-2 RBD K417E [1], with SARS-CoV-2 RBD G446V [2], with SARS-CoV-2 RBD Y453F [3] and with SARS-CoV-2 RBD E484K [4] was under 1 pM each time. The IC50 is 1 µg/mL and 1.2 nM in the assay with SARS-CoV-2 RBD K417E [5]; 0.78 µg/mL and 0.9 nM in the assay with SARS-CoV-2 RBD G446V [6]; 0.98 µg/mL and 1.1 nM with SARS-CoV-2 RBD Y453F [7]; 1.3 µg/mL and 1.5 nM with SARS-CoV-2 RBD E484K [8].

B2: Ab8 IgG (antibody, V domains shown)
VH: EVQLVESGGGLIQPGGSLRLSCAASGFTVSRNYMNWVRQAPGKGLEWVSVIYSGGSTFYADSVKGRFTISRDNSKNTLYLQMNSLRAEDTAVYYCARDASSYGIDWGQGTLVTVSS
VL: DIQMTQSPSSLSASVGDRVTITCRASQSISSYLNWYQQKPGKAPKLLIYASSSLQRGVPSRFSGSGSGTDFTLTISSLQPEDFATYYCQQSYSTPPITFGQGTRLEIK
Take B2: the Kd was 2000 pM with SARS-CoV-2 RBD K417E [1], under 1 pM with SARS-CoV-2 RBD G446V [2], under 1 pM with SARS-CoV-2 RBD Y453F [3] and under 1 pM with SARS-CoV-2 RBD E484K [4]. Also, the IC50 with SARS-CoV-2 RBD K417E [5] is 1 µg/mL and 7.2 nM; in the assay with SARS-CoV-2 RBD G446V [6], 0.88 µg/mL and 6.1 nM; with SARS-CoV-2 RBD Y453F [7], 1 µg/mL and 7.2 nM; with SARS-CoV-2 RBD E484K [8], 2.8 µg/mL and 19 nM.

B3: Ab10 IgM (antibody)
VH: QITLKESGPTLVKPTQTLTLTCTFSGFSLSTSGVGVGWIRQPPGKALEWLALIYWDDDKRYSPSLKSRLTITKDTSKNQVVLTMTNMDPVDTATYYCAHHKIERIFDYWGQGTLVTVSS
VL: QSALAQPASVSGSPGQSITISCTGTSSDVGAYNYVSWYQQHPGKAPKLMIYDVSKRPSGVSNRFSGSKSGNTASLTISGLQAEDEADYYCSSYTTSSTVFGGGTKLTVL
chain: not shown
Regarding B3, the equilibrium dissociation constant (Kd) in the assay with SARS-CoV-2 RBD K417E [9] is under 1 pM; with SARS-CoV-2 RBD G446V [10] it was 110 pM; with SARS-CoV-2 RBD Y453F [11], under 1 pM; with SARS-CoV-2 RBD E484K [12] it was under 1 pM. Further, the IC50 with SARS-CoV-2 RBD K417E [13] was 0.32 nM and 0.28 µg/mL; with SARS-CoV-2 RBD G446V [14], 5 nM and 4.3 µg/mL; with SARS-CoV-2 RBD Y453F [15], 0.49 nM and 0.42 µg/mL; with SARS-CoV-2 RBD E484K [16], 0.47 nM and 0.41 µg/mL.

B4: Ab10 IgG (antibody, V domains shown)
VH: QITLKESGPTLVKPTQTLTLTCTFSGFSLSTSGVGVGWIRQPPGKALEWLALIYWDDDKRYSPSLKSRLTITKDTSKNQVVLTMTNMDPVDTATYYCAHHKIERIFDYWGQGTLVTVSS
VL: QSALAQPASVSGSPGQSITISCTGTSSDVGAYNYVSWYQQHPGKAPKLMIYDVSKRPSGVSNRFSGSKSGNTASLTISGLQAEDEADYYCSSYTTSSTVFGGGTKLTVL
For B4, the Kd with SARS-CoV-2 RBD K417E [9] was under 1 pM; in the assay with SARS-CoV-2 RBD G446V [10], 120000 pM; in the assay with SARS-CoV-2 RBD Y453F [11], under 1 pM; with SARS-CoV-2 RBD E484K [12], under 1 pM. The IC50 is 3.8 nM and 0.55 µg/mL in the assay with SARS-CoV-2 RBD K417E [13]; > 69 nM and > 10 µg/mL in the assay with SARS-CoV-2 RBD G446V [14]; 8.6 nM and 1.2 µg/mL with SARS-CoV-2 RBD Y453F [15]; 10 nM and 1.5 µg/mL with SARS-CoV-2 RBD E484K [16].

B5: Ab7 IgM (antibody)
VH: EVQLVESGGGLVQPGGSLRLSCAVSGFTVSSNYMSWVRQAPGKGLEWVSVIYTGGGTYYADSVKGRFTISRDNSKNTLYLQMNTLRAEDTTVYYCARGDGSYYRAFDYWGQGTLVTVSS
VL: DIQMTQSPSSLSASVGDRVTITCRASQSISNYLNWYHQKPGKAPKLLIYAASSLQSGVPSRFSGSGSGTDFTLTISSLQPEDFATYYCQQSYSPPPTFGPGTKVEIK
chain: not shown
Turning to B5, the Kd with SARS-CoV-2 RBD K417E [17] was under 1 pM; with SARS-CoV-2 RBD G446V [18] it was under 1 pM; in the assay with SARS-CoV-2 RBD Y453F [19], under 1 pM; with SARS-CoV-2 RBD E484K [20], 7 pM. Besides, the IC50 in the assay with SARS-CoV-2 RBD K417E [21] was 0.36 nM and 0.31 µg/mL; with SARS-CoV-2 RBD G446V [22], 0.32 nM and 0.28 µg/mL; with SARS-CoV-2 RBD Y453F [23] it was 0.42 nM and 0.36 µg/mL; with SARS-CoV-2 RBD E484K [24], 0.87 nM and 0.76 µg/mL.

B6: Ab7 IgG (antibody, V domains shown)
VH: EVQLVESGGGLVQPGGSLRLSCAVSGFTVSSNYMSWVRQAPGKGLEWVSVIYTGGGTYYADSVKGRFTISRDNSKNTLYLQMNTLRAEDTTVYYCARGDGSYYRAFDYWGQGTLVTVSS
VL: DIQMTQSPSSLSASVGDRVTITCRASQSISNYLNWYHQKPGKAPKLLIYAASSLQSGVPSRFSGSGSGTDFTLTISSLQPEDFATYYCQQSYSPPPTFGPGTKVEIK
With B6, the Kd in the assay with SARS-CoV-2 RBD K417E [17], with SARS-CoV-2 RBD G446V [18] and in the assay with SARS-CoV-2 RBD Y453F [19] was under 1 pM in each case. For the same molecule, the IC50 with SARS-CoV-2 RBD K417E [21] is 2.4 nM and 0.35 µg/mL; in the assay with SARS-CoV-2 RBD G446V [22], 2.1 nM and 0.3 µg/mL; in the assay with SARS-CoV-2 RBD Y453F [23], 3.2 nM and 0.46 µg/mL; with SARS-CoV-2 RBD E484K [24] it was > 69 nM and > 10 µg/mL.
